Several values for one entry are separate records, joined by “and”; a condition that tells them apart may be missing. Identical values can stand only once.
How the values were obtained:
[1] = Plasma protein binding, human; format: in vitro ADME
Experimental: (§1) At pre-set time-points, blood concentration of JH4 was determined by LC-MS/MS analysis[22],[23]. Other chemicals were also tested using similar protocol. In vitro ADME studies (plasma protein binding, CYP inhibition, microsomal stability, plasma stability, and hERG inhibition) were performed by New Drug Development Center (Daegu, Korea) using standard protocols[24],[25].

[2] = Plasma protein binding, rat; format: in vitro ADME
Experimental: as §1

HEK293 cells [3] = assay: GFP-tagged protein and H3K9me3 expression in transfected HEK293 cells; format: cell-based; conditions: for GFP relative expression in Western Blot, Ave / GFP positive cells in total cells, Ave: average (Fig S1D); for GFP relative expression (ratio), Ave: average (Fig S1F); for Relative H3K9me3 expression, Ave: average (Fig S1G); for GFP relative expression in Western Blot / GFP positive cells in total cells: single replicates (Fig S1D); for GFP relative expression (ratio): single replicates (Fig S1F); for Relative H3K9me3 expression: single replicates (Fig S1G); for GFP positive cells in total cells, Ave / GFP positive cells in total cells: transfected cells;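 on Relative H3K9me3 expression, Ave: Western blot band quantification of H3K9me3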;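 on Relative H3K9me3 expression: Western blot band quantification of H3K9me3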
From the text: (§2) GFP tag conjugated EV (GFP-EV), lamin A (GFP-LA), lamin A-C661A (GFP-LA-C661A), progerin (GFP-PG), and progerin-C611A (GFP-PG-C611A) vectors were used. GFP-PG and GFP-LA expression vectors were kindly provided by Misteli T. (National Cancer Institute [NCI], Frederick, MD, USA). GFP-LA-C661A and GFP-PG-C611A expression vectors were created by a single point mutation in CaaX motif. The CSIM sequence of lamin A, or progerin was mutated to ASIM. jetPEI (Polyplus Transfection, NY, USA) was used for transfection of expression vectors. Vectors were mixed with 1.5 μl of jetPEI in 150 mM NaCl solution. The mixture was added to HEK293 cells. After 4 h of incubation, medium was replaced with a new medium supplemented with 10% FBS.
Protein was extracted from cells using a radioimmunoprecipitation assay (RIPA) buffer (50 mM Tris-Cl, pH 7.5, 150 mM NaCl, 1% NP-40, 0.1% SDS, and 10% sodium deoxycholate). Samples were separated by sodium dodecyl sulfate-polyacrylamide gel electrophoresis (SDS-PAGE) and transferred to polyvinylidene difluoride (PVDF) membranes. Blotted membranes were blocked with 3% skimmed milk in TBS-T buffer (20 mM Tris pH 7.6, 150 mM NaCl, and 0.05% Tween 20) for 1 h followed by incubation with specific primary antibodies. Horseradish peroxidase (HRP)-conjugated goat anti-mouse, goat anti-rabbit, and mouse anti-goat IgG antibodies (Pierce, Thermo Fisher Scientific, Inc., Rockford, IL, USA) were used as secondary antibodies. Peroxidase activity was detected by chemiluminescence using an ECL kit (Intron, Seoul, Korea) following the manufacturer’s instructions. Bands were quantified using Image J software (National Institute of Health, NIH).
(§3) Fig. S1. Generation of point mutation in CaaX motif of lamin A and progerin for blocking farnesylation.
(§4) A. Sequence of expression vector encoding LA-C661A was created by single point mutation in CaaX motif.
WT-LA with CSIM sequence was mutated to ASIM. B. Sequence of expression vector encoding progerin-C611A with a single point mutation in CaaX motif. Progerin with CSIM sequence was mutated to ASIM.
C. Transient transfection of HEK293 cells with LA-C661A or PG-C611A seems to be indistinguishable from that of authentic WT-LA, or progerin. D. Measurement of proteins (GFP-LA, GFP-LA-C661A, GFP-PG, and GFP-PG-C611A) expression by counting of GFP-positive cells and western blot analysis. The blue […]
fluorescence images were randomly selected and the number of GFP expressing cells were calculated. The […]
experiment; two-tailed Student’s t-test), N.S: not significant. Quantification of western blot by Ima ge J software (National Institute of Health, NIH). […]
Quantification of GFP -tagged expression vector encoding e mpty (EV), wild-type lamin A (WT-LA), lamin A-C661A (LA-C661A), progerin, or progerin- C611A. Blots of GFP expression were quantified using Image J software. (n = 3 independent experiment; two- tailed Student’s t -test), N.S: not significant. G.
Quantification of H3K9me3 expression. […]

HEK293 cells [4] = assay: Nuclear deformation in GFP-positive HEK293 cells transfected with lamin A / progerin vectors; format: cell-based; conditions: for % of deformed nuclei in GFP positive cells, Ave: average (Fig S1E); for % of deformed nuclei in GFP positive cells: single replicates (Fig S1E)
From the text: as §2
For nuclear deformation cell counting, immunofluorescence staining was performed with lamin A or progerin antibodies. After staining, abnormal nuclear membrane was counted in randomly selected fields and expressed as percentages or actual numbers of total cells counted. Abnormalities of nuclear membrane were determined based on the following: (1) lamin A/C or progerin lining was extruded or engulfed, (2) having at least one bleb, and (3) irregular contour. Counting of cells with nuclear deformation was performed by three independent observers who were blinded to chemical treatment group. To analyze histone H3K9me3 intensity or expression, images were quantified using “color histogram” function of Image J software (National Institute of Health, NIH). Fluorescence intensities were subtracted by background signals.
as §3, §4
WT-LA with CSIM sequence was mutated to ASIM. B. Sequence of expression vector encoding progerin-
C611A with a single point mutation in CaaX motif. Progerin with CSIM sequence was mutated to ASIM. […]
D. Measurement of proteins (GFP-LA, GFP-LA-C661A, GFP- […]
Quantification of western blot by Ima ge J
software (National Institute of Health, NIH). E. Quantification of nuclear deformation in GFP positive
HEK293 cells. At least 100 cells/sample/experiment were counted by two independent researchers. The
statistical significance was analyzed by Student’s t -test. **p < 0.001, *p < 0.05, N.S: not significant. F. […]

Molecule | Plasma protein binding [1] [% Bound] | fraction unbound ([1]; human, plasma) | fraction unbound [2] | GFP relative expression in Western Blot, Ave (HEK293 cells [3]) | GFP relative expression (ratio), Ave (HEK293 cells [3]) | Relative H3K9me3 expression, Ave (HEK293 cells [3]) | GFP relative expression in Western Blot (HEK293 cells [3]) | GFP relative expression (ratio) (HEK293 cells [3]) | Relative H3K9me3 expression (HEK293 cells [3]) | GFP positive cells in total cells, Ave (HEK293 cells [3]) | GFP positive cells in total cells (HEK293 cells [3]) | % of deformed nuclei in GFP positive cells, Ave (HEK293 cells [4]) [%] | % of deformed nuclei in GFP positive cells (HEK293 cells [4])
C[C@@H]1C[C@H]2[C@@H]3CCC4=CC(=O)C=C[C@]4(C)[C@@]3(F)[C@@H](O)C[C@]2(C)[C@@]1(O)C(=O)CO [Dexamethasone] | 62.1 | 0.345 | 0.156 |  |  |  |  |  |  |  |  |  | 
LA (protein, UniProt P02545 1-661, looked up) Prelamin-A/C: METPSQRRATRSGAQASSTPLSPTRITRLQEKEDLQELNDRLAVYIDRVRSLETENAGLRLRITESEEVVSREVSGIKAAYEAELGDARKTLDSVAKERARLQLELSKVREEFKELKARNTKKEGDLIAAQARLKDLEALLNSKEAALSTALSEKRTLEGELHDLRGQVAKLEAALGEAKKQLQDEMLRRVDAENRLQTMKEELDFQKNIYSEELRETKRRHETRLVEIDNGKQREFESRLADALQELRAQHEDQVEQYKKELEKTYSAKLDNARQSAERNSNLVGAAHEELQQSRIRIDSLSAQLSQLQKQLAAKEAKLRDLEDSLARERDTSRRLLAEKEREMAEMRARMQQQLDEYQELLDIKLALDMEIHAYRKLLEGEEERLRLSPSPTSQRSRGRASSHSSQTQGGGSVTKKRKLESTESRSSFSQHARTSGRVAVEEVDEEGKFVRLRNKSNEDQSMGNWQIKRQNGDDPLLTYRFPPKFTLKAGQVVTIWAAGAGATHSPPTDLVWKAQNTWGCGNSLRTALINSTGEEVAMRKLVRSVTVVEDDEDEDGDDLLHHHHGSHCSSSGDPAEYNLRSRTVLCGTCGQPADKASASGSGAQVGGPISSGSSASSVTVTRSYRSVGGSGGGSFGDNLVTRSYLLGNSSPRTQSPQNC |  |  |  | 1.171 | 0.7757 | 4.873 | 1.2 and 1.286 and 1.029 | 0.8616 and 0.6545 and 0.811 | 5.1 and 4.62 and 4.9 | 0.7312 | 0.897 and 0.585 and 0.741 (2×) and 0.546 and 0.819 (2×) and 0.702 |  | 
LA-C661A (protein, UniProt P02545 1-661, looked up, variant C661A) Prelamin-A/C: METPSQRRATRSGAQASSTPLSPTRITRLQEKEDLQELNDRLAVYIDRVRSLETENAGLRLRITESEEVVSREVSGIKAAYEAELGDARKTLDSVAKERARLQLELSKVREEFKELKARNTKKEGDLIAAQARLKDLEALLNSKEAALSTALSEKRTLEGELHDLRGQVAKLEAALGEAKKQLQDEMLRRVDAENRLQTMKEELDFQKNIYSEELRETKRRHETRLVEIDNGKQREFESRLADALQELRAQHEDQVEQYKKELEKTYSAKLDNARQSAERNSNLVGAAHEELQQSRIRIDSLSAQLSQLQKQLAAKEAKLRDLEDSLARERDTSRRLLAEKEREMAEMRARMQQQLDEYQELLDIKLALDMEIHAYRKLLEGEEERLRLSPSPTSQRSRGRASSHSSQTQGGGSVTKKRKLESTESRSSFSQHARTSGRVAVEEVDEEGKFVRLRNKSNEDQSMGNWQIKRQNGDDPLLTYRFPPKFTLKAGQVVTIWAAGAGATHSPPTDLVWKAQNTWGCGNSLRTALINSTGEEVAMRKLVRSVTVVEDDEDEDGDDLLHHHHGSHCSSSGDPAEYNLRSRTVLCGTCGQPADKASASGSGAQVGGPISSGSSASSVTVTRSYRSVGGSGGGSFGDNLVTRSYLLGNSSPRTQSPQNA |  |  |  | 1.219 | 0.7753 | 4.563 | 1.3 and 1.171 and 1.186 | 0.9644 and 0.614 and 0.7475 | 5.03 and 4.5 and 4.16 | 0.7264 | 0.819 and 0.936 and 0.741 (2×) and 0.546 and 0.585 and 0.78 and 0.663 | 7.286 | 8% and 6% and 10% and 5% and 9%
PG-C611A (protein, left off: GFP, end not stated, kept) METPSQRRATRSGAQASSTPLSPTRITRLQEKEDLQELNDRLAVYIDRVRSLETENAGLRLRITESEEVVSREVSGIKAAYEAELGDARKTLDSVAKERARLQLELSKVREEFKELKARNTKKEGDLIAAQARLKDLEALLNSKEAALSTALSEKRTLEGELHDLRGQVAKLEAALGEAKKQLQDEMLRRVDAENRLQTMKEELDFQKNIYSEELRETKRRHETRLVEIDNGKQREFESRLADALQELRAQHEDQVEQYKKELEKTYSAKLDNARQSAERNSNLVGAAHEELQQSRIRIDSLSAQLSQLQKQLAAKEAKLRDLEDSLARERDTSRRLLAEKEREMAEMRARMQQQLDEYQELLDIKLALDMEIHAYRKLLEGEEERLRLSPSPTSQRSRGRASSHSSQTQGGGSVTKKRKLESTESRSSFSQHARTSGRVAVEEVDEEGKFVRLRNKSNEDQSMGNWQIKRQNGDDPLLTYRFPPKFTLKAGQVVTIWAAGAGATHSPPTDLVWKAQNTWGCGNSLRTALINSTGEEVAMRKLVRSVTVVEDDEDEDGDDLLHHHHGSHCSSSGDPAEYNLRSRTVLCGTCGQPADKASASGSGAQSPQNASIM |  |  |  |  | 0.82 | 2.153 |  | 0.9957 and 0.6855 and 0.7789 | 2.22 and 2.38 and 1.86 | 0.7166 | 0.624 (2×) and 0.546 and 0.585 and 0.819 and 0.897 and 0.78 and 0.858 | 97.7143 | 95% and 100% and 96% and 98%
WT-LA (protein, left off: GFP, end not stated, state not stated) METPSQRRATRSGAQASSTPLSPTRITRLQEKEDLQELNDRLAVYIDRVRSLETENAGLRLRITESEEVVSREVSGIKAAYEAELGDARKTLDSVAKERARLQLELSKVREEFKELKARNTKKEGDLIAAQARLKDLEALLNSKEAALSTALSEKRTLEGELHDLRGQVAKLEAALGEAKKQLQDEMLRRVDAENRLQTMKEELDFQKNIYSEELRETKRRHETRLVEIDNGKQREFESRLADALQELRAQHEDQVEQYKKELEKTYSAKLDNARQSAERNSNLVGAAHEELQQSRIRIDSLSAQLSQLQKQLAAKEAKLRDLEDSLARERDTSRRLLAEKEREMAEMRARMQQQLDEYQELLDIKLALDMEIHAYRKLLEGEEERLRLSPSPTSQRSRGRASSHSSQTQGGGSVTKKRKLESTESRSSFSQHARTSGRVAVEEVDEEGKFVRLRNKSNEDQSMGNWQIKRQNGDDPLLTYRFPPKFTLKAGQVVTIWAAGAGATHSPPTDLVWKAQNTWGCGNSLRTALINSTGEEVAMRKLVRSVTVVEDDEDEDGDDLLHHHHGSHCSSSGDPAEYNLRSRTVLCGTCGQPADKASASGSGAQVGGPISSGSSASSVTVTRSYRSVGGSGGGSFGDNLVTRSY |  |  |  |  |  |  |  |  |  |  |  | 7 | 6% and 8% and 4% and 9% and 12%

Source: publication PMC7782499, “Progerinin, an optimized progerin-lamin A binding inhibitor, ameliorates premature senescence phenotypes of Hutchinson-Gilford progeria syndrome” (Communications Biology, 2021)
